Literature values in article doi:10.1101/2023.06.05.542125.
Like-named read-outs stand apart in the source and are kept apart here.

Tests used:
[1] = target: RNA polymerase elongation complex (Escherichia coli) (UniProt P0A7Z4)
[2] = target: RNA polymerase elongation complex (Escherichia coli) (UniProt P0A7Z4); remark: listed apart in the source

Sequence of GreA (P0A6W5 whole entry): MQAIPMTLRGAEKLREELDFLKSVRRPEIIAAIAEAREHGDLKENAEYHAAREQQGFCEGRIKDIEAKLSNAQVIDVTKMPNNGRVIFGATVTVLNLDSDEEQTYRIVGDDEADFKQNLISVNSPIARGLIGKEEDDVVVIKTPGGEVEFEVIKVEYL
Sequence of GreB (P30128 whole entry): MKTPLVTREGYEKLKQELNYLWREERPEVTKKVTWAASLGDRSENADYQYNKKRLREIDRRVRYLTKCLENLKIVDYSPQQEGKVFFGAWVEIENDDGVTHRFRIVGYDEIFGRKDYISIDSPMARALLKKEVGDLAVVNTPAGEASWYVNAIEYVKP

Kd [1] [µM]	Kd [2] [µM]	Substance
1	–	GreA (from UniProt P0A6W5)
–	0.1	GreB (from UniProt P30128)
